By EC50 is commonly meant the concentration needed to bring the measured effect to its halfway point. What is called IC50 is the concentration that inhibits the measured activity by half. A lower IC50 goes with greater potency.

Changes are numbered by the printed parent chain. In names and notes the source's numbering stands.

Here are results for 37 molecules from patent US20240016931A1 (JIANGSU HENGRUI PHARMACEUTICALS, published 2024).

Sequences and labels used below:
B1: hu119-02 (antibody, human IgG1, kappa)
heavy: EVQLVQSGAEVKKPGSSVKVSCKASGFTFSTYNMHWVRQAPGQGLEWMGAIYPGNGETSYNQKFKDRVTLTVDKSTSTAYMELSSLRSEDTAVYYCAREDDYGEGYFDVWGQGTTVTVSSASTKGPSVFPLAPSSKSTSGGTAALGCLVKDYFPEPVTVSWNSGALTSGVHTFPAVLQSSGLYSLSSVVTVPSSSLGTQTYICNVNHKPSNTKVDKKVEPKSCDKTHTCPPCPAPELLGGPSVFLFPPKPKDTLYITREPEVTCVVVDVSHEDPEVKFNWYVDGVEVHNAKTKPREEQYNSTYRVVSVLTVLHQDWLNGKEYKCKVSNKALPAPIEKTISKAKGQPREPQVYTLPPSRDELTKNQVSLTCLVKGFYPSDIAVEWESNGQPENNYKTTPPVLDSDGSFFLYSKLTVDKSRWQQGNVFSCSVMHEALHNHYTQKSLSLSPGK
light: DIVMTQSPDSLAVSLGERATINCRASESVDNSGLSFMHWYQQKPGQPPKLLIYRASNLGSGVPDRFSGSGSGTDFTLTISSLQAEDVAVYYCQQINTDPLTFGQGTKLEIKRTVAAPSVFIFPPSDEQLKSGTASVVCLLNNFYPREAKVQWKVDNALQSGNSQESVTEQDSKDSTYSLSSTLTLSKADYEKHKVYACEVTHQGLSSPVTKSFNRGEC
notes: IgG1-YTE, kappa
B2: hu119-09 (antibody, human IgG1, kappa, V domains shown)
VH: EVQLVQSGAEVKKPGSSVKVSCKASGGTFSTYNMHWVRQAPGQGLEWMGAIYPGNGETSYNQKFKDRVTITADKSTSTAYMELSSLRSEDTAVYYCAREDDYGEGYFDVWGQGTTVTVSS
VL: DIVMTQSPDSLAVSLGERATINCRASESVDNSGLSFMHWYQQKPGQPPKLLLYRASNLGSGIPDRFSGSGSGTDFTLTISSLQAEDVAVYYCQQINTDPLTFGQGTKLEIKR
notes: IgG1-YTE, kappa
B3: hu119-10 (antibody, human IgG1, kappa, V domains shown)
VH: B2 VH with G27F, I70L, A72V
VL: B2 VL
notes: IgG1-YTE, kappa
B4: hu119-01 (antibody, human IgG1, kappa)
heavy: B1 heavy with F27G, L70I, V72A
light: B1 light
notes: IgG1-YTE, kappa
B5: hu119-29 (antibody, human IgG1, kappa, V domains shown)
VH: B2 VH with G27F, R38K, Q39H, M48I, V68A, I70L, A72V
VL: B2 VL with M4L, N31Q, L52I, I62V
notes: IgG1-YTE, kappa; also called hu119VH3 + hu119VL2-N31Q
B6: hu119-08 (antibody, human IgG1, kappa)
heavy: B1 heavy with R38K, Q39H, M48I, V68A
light: B1 light with M4L
notes: IgG1-YTE, kappa
B7: hu119-28 (antibody, human IgG1, kappa, V domains shown)
VH: B2 VH with G27F, R38K, Q39H, M48I, V68A, I70L, A72V
VL: B2 VL with M4L, N31S, L52I, I62V
notes: IgG1-YTE, kappa; also called hu119VH3 + hu119VL2-N31S
B8: hu119-05 (antibody, human IgG1, kappa)
heavy: B1 heavy with F27G, L70I, V72A
light: B1 light with M4L
notes: IgG1-YTE, kappa
B9: hu119-04 (antibody, IgG1)
heavy: B1 heavy with R38K, Q39H, M48I, V68A
light: B1 light
notes: IgG1-YTE, kappa
B10: hu119-06 (antibody, human IgG1, kappa)
heavy: B1 heavy
light: B1 light with M4L
notes: IgG1-YTE, kappa
B11: hu119-12 (antibody, IgG1, V domains shown)
VH: B2 VH with G27F, R38K, Q39H, M48I, V68A, I70L, A72V
VL: B2 VL
notes: IgG1-YTE, kappa
B12: hu179-06 (antibody, human IgG1, kappa, V domains shown)
VH: EVQLVQSGAEVKKPGSSVKVSCKASGYTFSNYLIEWVRQAPGQGLEWIGVIDPGNGDTNYNENFKGRATLTADKSTSTAYIELSSLRSEDTAVYYCAREDNTGTAFDYWGQGTTVTVSS
VL: DIVMTQSPDSLAVSLGERATINCKASQSVSSDVTWYQQKPGQSPKLLIYYVSNHYTGVPDRFSGSGSGTDFTLTISSLQAEDVAVYYCQQHHRFPLTFGQGTKLEIKR
notes: IgG1-YTE, kappa
B13: hu179-23 (antibody, human IgG1, kappa, V domains shown)
VH: B12 VH with Y27G, I48M, A68V, L70I, I81M
VL: B12 VL with N53D
notes: IgG1-YTE, kappa
B14: hu179-30 (antibody, human IgG1, kappa, V domains shown)
VH: B12 VH
VL: B12 VL with H54D
notes: IgG1-YTE, kappa
B15: hu179-04 (antibody, human IgG1, kappa, V domains shown)
VH: B12 VH with I48M, A68V, I81M
VL: B12 VL
notes: IgG1-YTE, kappa
B16: hu179-21 (antibody, human IgG1, kappa, V domains shown)
VH: B12 VH with Y27G, I48M, N55V, A68V, L70I, I81M
VL: B12 VL
notes: IgG1-YTE, kappa; also called hu179VH1-N55V + hu179VL2
B17: hu179-31 (antibody, human IgG1, kappa, V domains shown)
VH: B12 VH
VL: B12 VL with H54E
notes: IgG1-YTE, kappa
B18: hu179-12 (antibody, human IgG1, kappa, V domains shown)
VH: B12 VH with R38K, R67K, S85R
VL: B12 VL with S43P
notes: IgG1-YTE, kappa
B19: hu179-22 (antibody, human IgG1, kappa, V domains shown)
VH: B12 VH with Y27G, I48M, G56V, A68V, L70I, I81M
VL: B12 VL
notes: IgG1-YTE, kappa; also called hu179VH1-G56V + hu179VL2
B20: hu179-26 (antibody, human IgG1, kappa, V domains shown)
VH: B12 VH
VL: B12 VL with S52D
notes: IgG1-YTE, kappa
B21: hu179-27 (antibody, human IgG1, kappa, V domains shown)
VH: B12 VH
VL: B12 VL with S52E
notes: IgG1-YTE, kappa
B22: hu179-32 (antibody, human IgG1, kappa, V domains shown)
VH: B12 VH
VL: B12 VL with Y55E
notes: IgG1-YTE, kappa
B23: hu179-15 (antibody, human IgG1, kappa, V domains shown)
VH: B12 VH with T28A, I81M
VL: B12 VL with D1S
notes: IgG1-YTE, kappa
B24: hu179-05 (antibody, human IgG1, kappa, V domains shown)
VH: B12 VH
VL: B12 VL with S43P
notes: IgG1-YTE, kappa
B25: hu179-25 (antibody, human IgG1, kappa, V domains shown)
VH: B12 VH
VL: B12 VL with Y50E
notes: IgG1-YTE, kappa
B26: hu179-01 (antibody, human IgG1, kappa, V domains shown)
VH: B12 VH with Y27G, I48M, A68V, L70I, I81M
VL: B12 VL with S43P
notes: IgG1-YTE, kappa
B27: hu179-13 (antibody, human IgG1, kappa, V domains shown)
VH: B12 VH with R38K, R67K, S85R
VL: B12 VL
notes: IgG1-YTE, kappa
B28: hu179-07 (antibody, human IgG1, kappa, V domains shown)
VH: B12 VH
VL: B12 VL with L73F
notes: IgG1-YTE, kappa
B29: hu179-03 (antibody, human IgG1, kappa, V domains shown)
VH: B12 VH with I48M, A68V, I81M
VL: B12 VL with S43P
notes: IgG1-YTE, kappa
B30: hu179-14 (antibody, human IgG1, kappa, V domains shown)
VH: B12 VH with T28A, I81M
VL: B12 VL with L73F
notes: IgG1-YTE, kappa
B31: hu179-20 (antibody, human IgG1, kappa, V domains shown)
VH: B12 VH with Y27G, I48M, N55Q, A68V, L70I, I81M
VL: B12 VL
notes: IgG1-YTE, kappa; also called hu179VH1-N55Q + hu179VL2
B32: hu179-02 (antibody, human IgG1, kappa, V domains shown)
VH: B12 VH with Y27G, I48M, A68V, L70I, I81M
VL: B12 VL
notes: IgG1-YTE, kappa
B33: hu179-29 (antibody, human IgG1, kappa, V domains shown)
VH: B12 VH
VL: B12 VL with N53E
notes: IgG1-YTE, kappa
B34: hu179-28 (antibody, human IgG1, kappa, V domains shown)
VH: B12 VH
VL: B12 VL with N53Q
notes: IgG1-YTE, kappa
B35: hu179-24 (antibody, human IgG1, kappa, V domains shown)
VH: B12 VH with Y27G, I48M, A68V, L70I, I81M
VL: B12 VL with H54Y
notes: IgG1-YTE, kappa
B36: Ch179 (antibody, human IgG1, kappa, V domains shown)
VH: QVQLQQSGAELVRPGTSVKVSCKASGYAFTNYLIEWVKQRPGQGLEWIGVIDPGNGDTNYNENFKGKATLTADKSSSTAYIELSRLTSEDSAVYFCAREDNTGTAFDYWGQGTTLTVSS
VL: SIVMTQTPKFLLVSAGDRVTISCKASQSVSSDVTWYQQKPGQSPKLLIYYVSNHYTGVPDRFTGSGYGTDFTFTISSVQAEDLAVYFCQQHHRFPLTFGAGTKLELKR
notes: murine variable regions on human IgG1-YTE / kappa; also called chimeric antibody corresponding to mab179
B37: hu199-08 (antibody, human IgG1, kappa, V domains shown)
VH: EVQLVQSGAEVKKPGASVKVSCKASGYTFTTYWMHWVRQAPGQGLEWMGMIDPSDSETTLIQKFKDRVTLTVDKSTSTAYMELSSLRSEDTAVYYCARTLDGYYDYWGQGTTVTVSS
VL: DIQMTQSPSSLSASVGDRVTITCRASENIYSYLAWYQQKPGKAPKLLVYFAKTLAEGVPSRFSGSGSGTDFTLTISSLQPEDFATYYCQHHYGTPWTFGGGTKVEIKR
notes: IgG1-YTE, kappa

The first assay has as its target T1, His-tagged human TSLP antigen (huTSLP-his) (human).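 Note: binding of antibodies to plate-bound TSLP read as absorbance at 450 nm after TMB colour development, EC50 derived from binding curves.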
T1 construct: Secreted from HEK293E and purified on nickel; whole entry named; also called Human TSLP-his
Kind of assay: ELISA, coated huTSLP-his. (In general: In an ELISA, binding on a coated surface is turned into a signal by an enzyme label.)
As for B1, a half-maximal effect (EC50) was put at 0.194 nM.

In turn, B2 had an EC50 of 0.149 nM. On the same count and under the same terms, under B3 stands 0.233 nM. With B4, a half-maximal response (EC50) required 0.107 nM.

Molecule B5 displayed an EC50 of 0.273 nM. For the molecule B6, the EC50 came out at 0.202 nM. As to B7, the EC50 came to 0.265 nM.

As for B8, the half-maximal effective concentration (EC50) is 0.144 nM.

Molecule B9 gave an EC50 of 0.188 nM. Still for that read-out and setting: under B10 stands 0.221 nM; under B11, 0.203 nM.

B12 registered an EC50 of 0.219 nM. Still for that read-out and setting: under B13 stands 0.997 nM. Still for that read-out and setting: under B14 stands 0.246 nM; under B15, 0.189 nM; under B16, 0.978 nM. In turn, B17 showed an EC50 of 0.201 nM. B18 yielded a concentration giving a half-maximal response (EC50) of 0.144 nM.

B19 showed a half-maximal effective concentration (EC50) of 0.752 nM. The molecule B20 had an EC50 of 0.201 nM.

Take B21: it took 0.18 nM to reach a half-maximal effect (EC50).

The molecule B22 returned an EC50 of 0.145 nM. B23 displayed an EC50 of 0.203 nM. Regarding B24, the response was half-maximal at 0.142 nM (EC50). Molecule B25 had an EC50 of 0.131 nM.

Molecule B26 gave a concentration for a half-maximal effect (EC50) of 0.125 nM. Still for that read-out and setting: under B27 stands 0.201 nM.

With B28, a half-maximal response (EC50) required 0.448 nM.

Molecule B29 returned an EC50 of 0.138 nM. Same read-out and setting: under B30 stands 0.205 nM; under B31, 0.708 nM.

Molecule B32 came in with a concentration for a half-maximal effect (EC50) of 0.17 nM. Same read-out and setting: under B33 stands 0.204 nM; under B34, 0.0906 nM; under B35, 0.636 nM. On the same count and under the same terms, under B36 stands 0.202 nM.

The target in the next assay is T2, Fc-tagged human TSLP antigen (huTSLP-Fc) (human, biotin-labeled in the blocking assays).
T2 construct: whole entry named; also called recombinant human TSLP-Fc
The assay is described as follows: competition ELISA: blocks TSLP binding to TSLP receptor.
In turn, B37 yielded a 50% inhibitory concentration (IC50) of 0.283 nM.
